Measured values reported in patent US20190135868.

Experiments:
RTD913 SMCC (synthetic) = system: T1, RTD913 SMCC (synthetic); test: EMSA; conditions: stable complex formation, somewhat unstable binding; text p911 gives ~50-100 nM
T1 sequence 1: KRAHHNALERXRRDXIKDS
T1 sequence 2: KRRTHNXLERXRRNELKRS

[1] = system: T2, RTD84 (stapled sDBD) (synthetic); test: EMSA; conditions: text p911 gives EC50 ~50-100 nM
T2 sequence 1: KRXHHNXLERKRRDHIKDS
T2 sequence 2: KRRTHNXLERXRRNELKRS

## CACGTG (double strand) [E-box probe (E1)]
RTD913 SMCC (synthetic)
  EC50: 20 nM
[1]
  Kd: 50 nM
